Entries after “also recorded” stand apart in the source; their conditions may differ.
molecular target: T1, C3G-peptide (Homo sapiens, UniProt Q13905); assay: Binding of Crk-N to the C3G-peptide in solution; conditions: purified synthetic Crk-N
T1 construct: made in house; host or cells: chemical synthesis
Description: FIG. 3 illustrates preliminary iterative signature analysis data on residues 156-165 of the peptide Crk-N. a) Represents a comparison of the elution profiles obtained for the protein family using a C3G-peptide agarose column and a Leucine-Enkephalin agarose column (control). […] Single letters refer to amino acid pairs substituted with the -Gly-SCH2CH2CO— marker. d) Comparison of the MALDI MS spectra of the ammonium acetate wash and the entire 9 component synthetic Crk-N family cleaved with ammonium acetate. In both cases the N-terminal peptide ladder is observed at a much higher intensity than the equimolar C-terminal peptide ladder.
The folded protein was structurally characterized by NMR and crystallization (The folded protein was characterized by two dimensional NOESY 1H NMR spectroscopy. In addition, the synthetic protein solution used for NMR analysis spontaneously formed crystals upon storage at 4° C. These crystals diffracted to >2.3 Å allowing for the solution by molecular replacement. Refinement of the structure is in progress). The resulting synthetic protein domain was then assayed for its affinity for two different proline-rich peptides. […] This change in solvent exposure leads to an increase in the fluorescence intensity of the tryptophan sidechain which can be monitored as a function of increasing ligand concentration (Feng et al. Science 1994.266, 1241-1245). […]

Row | Kd [nM] | Molecule
1 | 2300 | CC[C@H](C)[C@H](NC(=O)[C@H](CC(=O)O)NC(=O)CNC(=O)[C@H](CCCCN)NC(=O)[C@H](CCCCN)NC(=O)[C@H](Cc1ccccc1)NC(=O)[C@@H]1CCCN1C(=O)[C@H](CC(C)C)NC(=O)[C@H](CC(=O)O)NC(=O)[C@H](CCC(=O)O)NC(=O)[C@H](CCC(=O)O)NC(=O)[C@H](CC(=O)O)NC(=O)[C@H](CC(N)=O)NC(=O)CNC(=O)[C@H](CC(N)=O)NC(=O)[C@H](Cc1ccccc1)NC(=O)[C@H](CC(=O)O)NC(=O)[C@H](Cc1ccccc1)NC(=O)[C@H](CC(C)C)NC(=O)[C@H](C)NC(=O)[C@H](CCCNC(=N)N)NC(=O)[C@@H](NC(=O)[C@H](Cc1ccc(O)cc1)NC(=O)[C@H](CCC(=O)O)NC(=O)[C@H](C)N)C(C)C)C(=O)N[C@@H](CC(C)C)C(=O)N[C@@H](CCCNC(=N)N)C(=O)N[C@H](C(=O)N[C@@H](CCCNC(=N)N)C(=O)N[C@@H](CC(=O)O)C(=O)N[C@@H](CCCCN)C(=O)N1CCC[C@H]1C(=O)N[C@@H](CCC(=O)O)C(=O)N[C@@H](CCC(=O)O)C(=O)N[C@@H](CCC(N)=O)C(=O)N[C@@H](Cc1c[nH]c2ccccc12)C(=O)N[C@@H](Cc1c[nH]c2ccccc12)C(=O)N[C@@H](CC(N)=O)C(=O)N[C@@H](C)C(=O)N[C@@H](CCC(=O)O)C(=O)N[C@@H](CC(=O)O)C(=O)N[C@@H](CO)C(=O)N[C@@H](CCC(=O)O)C(=O)NCC(=O)N[C@@H](CCCCN)C(=O)N[C@@H](CCCNC(=N)N)C(=O)NCC(=O)N[C@@H](CCSC)C(=O)N[C@H](C(=O)N1CCC[C@H]1C(=O)N[C@H](C(=O)N1CCC[C@H]1C(=O)N[C@@H](Cc1ccc(O)cc1)C(=O)N[C@H](C(=O)N[C@@H](CCC(=O)O)C(=O)N[C@@H](CCCCN)C(=O)N[C@@H](Cc1ccc(O)cc1)C(=O)N[C@@H](CCCNC(=N)N)C(=O)O)C(C)C)C(C)C)[C@@H](C)CC)[C@@H](C)CC [synthetic Crk-N]

molecular target: T2, C3G-derived synthetic peptide (Homo sapiens, UniProt Q13905); assay: C3G-derived synthetic peptide affinity column binding with MALDI readout; conditions: Gly-[COS]-βAla analogue unit; 19-member array, residues 146-165 of c-Crk SH3 domain (Example 3)
T2 construct: made in house; host or cells: chemical synthesis on 4-methyl benzhydrylamine resin
Experimental: An affinity column carrying a synthetic C3G derived peptide was prepared by reaction of the cysteine side chain of Acetyl-CWAcp-[…].amide (SEQ NO ID NO 14) with an iodoacetylated agarose matrix. The linker Acetyl-CWAcp- was designed to combine a reactive sulfhydryl on the Cys sidechain with a spectroscopic tag in the Trp residue, and to introduce a flexible spacer region between the support and the peptide ligand in the form of ε-aminocaproic acid. The amount of peptide on the column, was determined as 5 μmol/mL of the swollen agarose matrix from the absorbance at 280 nm of the peptide solution before and after reaction with the column.
The column was then washed with 0.5 M NaCl buffer to remove nonspecific binding proteins from the column. Specifically bound protein analogues were then eluted with 1 M hydroxylamine bufffer. Amounts of eluted peptide were monitored by UV absorbance at 280 nm. This procedure was used for both the C3G peptide column and for the control column loaded with Ac-C-AcpYGGFL.amide. The hydroxylamine cleavage of the thioester bond results in the elution of peptide fragments corresponding to the proteins which were able to bind to the affinity column under these conditions. Specific binding was found only for the C3G peptide column.
The composition of the parent array of SH3 protein analogues, as well as the binding and non-binding fractions obtained from affinity chromatography was determined by chemical cleavage and MALDI MS. First, the parent array of folded protein analogues and the 0.5 M NaCl wash from the affinity chromatography of the array were cleaved separately with hydroxylamine. After a desalting step, MALDI mass spectra were obtained for the peptide fragments generated from the (parent) protein array, the salt wash (non-binding) and for the peptide fragments generated by the hydroxylamine elution of the specifically bound analogues (binding). Nine components were present in the array of protein analogues that was added to the C3G column as one mixture (FIG. 26A). […] Three protein analogues, however, were able to bind to the C3G peptide on the column and were eluted only after cleavage with hydroxylamine (FIG. 26C). One of the protein analogues can be identified in both the wash and elution spectra, indicating intermediate folding and/or binding properties for this analogue.
The C3G-derived synthetic peptide affinity column was prepared by adding 10 mg of lyophilized Ac-CWAcp[…].amide (SEQ ID NO 24) (Acp=ε-amino caproic acid) in 2 mL of 50 mM Tris, 5 mM EDTA, pH 8.0 buffer to Sulfolink™ resin (Pierce), equilibrated in the same buffer, for 1 hour while shaking. Unreacted iodoalkyl groups on the resin were then blocked by treatment with 50 mM cystamine, 50 mM Tris, 5 mM EDTA, pH 8.0 buffer for 1 hour. The loading of the column was determined by UV absorbance of the unreacted peptide solution and was approximately 5 μmol/mL. A similar procedure was used to attach the control peptide Ac-CAcpYGGFL.amide (SEQ ID NO 25) to the another batch of the Sulfolink™ support.
Lyophilized crude synthetic polypeptide corresponding to the cCrk SH3 domain (1.5 mg) and BSA (8.5 mg) were dissolved in 20 mM HEPES, 50 mM NaCl, pH 7.3 buffer (400 μL) and loaded on to a 1 mL C3G-derived synthetic peptide affinity column pre-equilibrated with the same buffer. The column was washed with 4 mL each of 50 mM NaCl, 100 mM NaCl, 200 mM NaCl, 300 mM NaCl, 400 mM NaCl, 500 mM NaCl and 1000 mM NaCl, 0.1 M phosphate, pH 7.0 buffer. The column was then washed with 1 M NH2OH 200 mM NH4CO3 pH 6.0 (4 mL) and finally eluted in 6M Gn.HCl 100 mM phosphate pH 6.5 (4 mL). Samples from all column fractions were monitored by absorbance at 280 nm and by HPLC.
Affinity chromatography of the arrays of protein analogues was carried out as follows. […]

Row | Molecule | binding to C3G peptide affinity column, active (binding) pool
2 | K^164P^165: c-Crk SH3 domain analogue, dipeptide K164P165 replaced by Gly-[COS]-βAla | displayed appreciable binding; also recorded: without significant loss of binding activity
3 | N^146D^147: c-Crk SH3 domain analogue, dipeptide N146D147 replaced by Gly-[COS]-βAla | displayed appreciable binding
4 | R^162D^163: c-Crk SH3 domain analogue, dipeptide R162D163 replaced by Gly-[COS]-βAla | displayed appreciable binding; also recorded: without significant loss of binding activity
5 | D^163K^164: c-Crk SH3 domain analogue, dipeptide D163K164 replaced by Gly-[COS]-βAla | displayed appreciable binding; also recorded: without significant loss of binding activity
6 | E^148E^149: c-Crk SH3 domain analogue, dipeptide E148E149 replaced by Gly-[COS]-βAla | displayed appreciable binding
7 | I^161R^162: c-Crk SH3 domain analogue, dipeptide I161R162 replaced by Gly-[COS]-βAla | displayed appreciable binding; also recorded: without significant loss of binding activity
8 | L^151P^152: c-Crk SH3 domain analogue, dipeptide L151P152 replaced by Gly-[COS]-βAla | displayed appreciable binding
9 | D^147E^148: c-Crk SH3 domain analogue, dipeptide D147E148 replaced by Gly-[COS]-βAla | displayed appreciable binding

molecular target: T1, C3G-peptide; assay: not given; conditions: recombinant Crk-N; read-out: KD for binding the C3G-peptide in solution; cited from earlier work

Row | Molecule | Kd [nM]
10 | recombinant Crk-N: recombinantly derived cCrk SH3 domain reported by Wu et al. Structure 1995 | 1900

Reference: patent US6495314B1, “Process for characterizing proteins” (The Scripps Research Institute, priority 1995, dated 2002)
